# Positions count from the first letter of the chain named. Ends that are not written are not given here.
# B1: antibody 17G8.72 (antibody, V domains shown)
# VH: DVQLQESGPDLVKPSQSLSLTCTVTGYSIASGYSWHWIRQFPGNKLEWMGYIHFSGSANYNPSLKSRISITRDTSKNQFFLQLNSVTTEDTATYYCASEARGYFDYWGQGTTLTVSS
# VL: DVLMTQTPLSLPVSLGDQASISCRSSQSIVRSNGNTYLTWYLQKPGQSPKLLIYKVSNRFSGVPDRFSGSGSGTDFTLKISRVEAEDLGVYFCFQGSHVPPTFGSGTKLEIKR
# notes: Monoclonal antibody against the EDA domain of fibronectin-EDA; also called 17G8.7VL
# B2: antibody 27A12.70 (antibody, V domains shown)
# VH: B1 VH with A30T, F54Y, S57I, Q78H, S98T, A100K, R101T, Y103F
# VL: B1 VL with L3V, I29L, R31H, T39H, F94S, G96S, S97A, S105G
# notes: Murine monoclonal antibody against the EDA domain of fibronectin-EDA
# B3: antibody 29E7.35 (antibody, V domains shown)
# VH: B1 VH with D1A, Q16H, A30T, F54Y, I68F, S98T, A100K, R101T, Y103F
# VL: B1 VL with L3V, I29L, R31H, T39H, F94S, G96S, S97A, S105G
# notes: Monoclonal antibody against the EDA domain of fibronectin-EDA
# What was measured:
# Test in all cases: PEPSCAN-based ELISA, peptide linked to card
# peptide TYSSPEAGIHELFP = target: T1, peptide TYSSPEAGIHELFP (also: covalently linked to a PEPSCAN card)
# T1 construct: also called replaced amino acid D
# T1 peptide: TYSSPEAGIHELFP
# Experimental: (§1) The binding of antibody to each peptide was tested in a PEPSCAN-based ELISA. The 455-well credit card format polypropylene cars containing the covalently linked peptides were incubated with primary antibody solution consisting of 0.05 micrograms antibody/mL diluted in blocking solution, i.e., 4% horse serum, 5% ovalbumin (w/v) in PBS/0.1% Tween. After washing, the peptides were incubated with a 1/1000 dilution of antibody peroxidase conjugate for one hour at 25° C. After washing, the peroxidase substrate 2,2′-azino-di-3-ehtylbenzthiazoline sulfonate (ABTS) and 2 microliters of 3 percent H₂O₂ were added. After one hour, the colour development was measured. The colour development was quantified with a charge coupled device (CCD)-camera and an image processing system (as firstly described in Slootstra et al. Mol Divers. 1996 February; 1(2):87-96).
# (§2) Peptide synthesis, screening assays and data calculation for alanine-scan of fibronectin-EDA epitope are performed as described in Example 1. Peptides based on […] were synthesized wherein in each peptide one amino acid is replaced by an alanine. The peptides were tested for binding by antibodies 27A12.70, 29E7.35, 17G8.72 and 42H11.51.
# peptide TYSSAEDGIHELFP = target: T2, peptide TYSSAEDGIHELFP (also: covalently linked to a PEPSCAN card)
# T2 construct: also called replaced amino acid P (first)
# T2 peptide: TYSSAEDGIHELFP
# Experimental: as §1, §2
# peptide AYSSPEDGIHELFP = target: T3, peptide AYSSPEDGIHELFP (also: covalently linked to a PEPSCAN card)
# T3 construct: also called replaced amino acid T
# T3 peptide: AYSSPEDGIHELFP
# Experimental: as §1, §2
# peptide TYSSPEDGIHEAFP = target: T4, peptide TYSSPEDGIHEAFP (also: covalently linked to a PEPSCAN card)
# T4 construct: also called replaced amino acid L
# T4 peptide: TYSSPEDGIHEAFP
# Experimental: as §1, §2
# peptide TYASPEDGIHELFP = target: T5, peptide TYASPEDGIHELFP (also: covalently linked to a PEPSCAN card)
# T5 construct: also called replaced amino acid S (first)
# T5 peptide: TYASPEDGIHELFP
# Experimental: as §1, §2
# peptide TYSSPADGIHELFP = target: T6, peptide TYSSPADGIHELFP (also: covalently linked to a PEPSCAN card)
# T6 construct: also called replaced amino acid E (first)
# T6 peptide: TYSSPADGIHELFP
# Experimental: as §1, §2
# peptide TYSAPEDGIHELFP = target: T7, peptide TYSAPEDGIHELFP (also: covalently linked to a PEPSCAN card)
# T7 construct: also called replaced amino acid S (second)
# T7 peptide: TYSAPEDGIHELFP
# Experimental: as §1, §2
# peptide TASSPEDGIHELFP = target: T8, peptide TASSPEDGIHELFP (also: covalently linked to a PEPSCAN card)
# T8 construct: also called replaced amino acid Y
# T8 peptide: TASSPEDGIHELFP
# Experimental: as §1, §2
# peptide TYSSPEDGIAELFP = target: T9, peptide TYSSPEDGIAELFP (also: covalently linked to a PEPSCAN card)
# T9 construct: also called replaced amino acid H
# T9 peptide: TYSSPEDGIAELFP
# Experimental: as §1, §2
# peptide TYSSPEDGIHELFP = target: T10, peptide TYSSPEDGIHELFP (also: covalently linked to a PEPSCAN card)
# T10 construct: Synthetic peptide covalently linked to a PEPSCAN card; parent peptide of the alanine scan; also called replaced amino acid: none
# T10 peptide: TYSSPEDGIHELFP
# Experimental: as §1, §2
# peptide TYSSPEDGIHELFA = target: T11, peptide TYSSPEDGIHELFA (also: covalently linked to a PEPSCAN card)
# T11 construct: also called replaced amino acid P (second)
# T11 peptide: TYSSPEDGIHELFA
# Experimental: as §1, §2
# peptide TYSSPEDGIHALFP = target: T12, peptide TYSSPEDGIHALFP (also: covalently linked to a PEPSCAN card)
# T12 construct: also called replaced amino acid E (second)
# T12 peptide: TYSSPEDGIHALFP
# Experimental: as §1, §2
# [1] = target: T13, peptide …
# T13 sequence (peptide): TYSSPEDGAHELFP
# [2] = target: T14, peptide …; remark: listed apart in the source
# T14 sequence (peptide): TYSSPEDAIHELFP
# [3] = target: T15, peptide …; remark: listed apart in the source
# T15 sequence (peptide): TYSSPEDGIHELAP
# [4] = target: T16, peptide …; remark: listed apart in the source
# T16 sequence (peptide): TYSSPEDGIHEAFP
Binder,Antibody binding (arbitrary optical density units) (peptide TYSSPEAGIHELFP),Antibody binding (arbitrary optical density units) (peptide TYSSAEDGIHELFP),Antibody binding (arbitrary optical density units) (peptide AYSSPEDGIHELFP),Antibody binding (arbitrary optical density units) (peptide TYSSPEDGIHEAFP),Antibody binding (arbitrary optical density units) (peptide TYASPEDGIHELFP),Antibody binding (arbitrary optical density units) (peptide TYSSPADGIHELFP),Antibody binding (arbitrary optical density units) (peptide TYSAPEDGIHELFP),Antibody binding (arbitrary optical density units) (peptide TASSPEDGIHELFP),Antibody binding (arbitrary optical density units) (peptide TYSSPEDGIAELFP),Antibody binding (arbitrary optical density units) (peptide TYSSPEDGIHELFP),Antibody binding (arbitrary optical density units) (peptide TYSSPEDGIHELFA),Antibody binding (arbitrary optical density units) (peptide TYSSPEDGIHALFP),Antibody binding (arbitrary optical density units) (arbitrary optical density units) [1],Antibody binding (arbitrary optical density units) (arbitrary optical density units) [2],Antibody binding (arbitrary optical density units) (arbitrary optical density units) [3],Antibody binding (arbitrary optical density units) (arbitrary optical density units) [4]
B1,2650 arbitrary optical density units,2090 arbitrary optical density units,2150 arbitrary optical density units,1550 arbitrary optical density units,2500 arbitrary optical density units,2480 arbitrary optical density units,2100 arbitrary optical density units,2670 arbitrary optical density units,2560 arbitrary optical density units,2090 arbitrary optical density units,2160 arbitrary optical density units,2100 arbitrary optical density units,66,89,106,
B2,2750 arbitrary optical density units,2710 arbitrary optical density units,2710 arbitrary optical density units,1780 arbitrary optical density units,2720 arbitrary optical density units,2690 arbitrary optical density units,2680 arbitrary optical density units,2790 arbitrary optical density units,2400 arbitrary optical density units,2680 arbitrary optical density units,2600 arbitrary optical density units,2200 arbitrary optical density units,91,122,249,
B3,2720 arbitrary optical density units,2660 arbitrary optical density units,2780 arbitrary optical density units,,2740 arbitrary optical density units,2630 arbitrary optical density units,2630 arbitrary optical density units,2840 arbitrary optical density units,1800 arbitrary optical density units,2750 arbitrary optical density units,2600 arbitrary optical density units,302 arbitrary optical density units,74,81,124,194
